Reference: US20250076311A1 (Chugai, published 2025)
Where a chain is given by its changes, count along the chain named. Names and notes keep the numbering of the source. Values belong to the binder of their own block, whether it stands above or below them.

What was measured:
[1] = molecular target: T1, Human latent myostatin (human, UniProt O14793 25-266; O14793 267-375); assay: Western blot with the antibody as probe on GST-tagged 100-amino-acid fragments of the human latent myostatin propeptide expressed in E. coli BL21 (lanes 1-8), GST control (lane 9) and human latent myostatin 100 ng (lane 10)
T1 construct: Biotinylated in the ELISAs; also called human myostatin latent form
T1 sequence 1: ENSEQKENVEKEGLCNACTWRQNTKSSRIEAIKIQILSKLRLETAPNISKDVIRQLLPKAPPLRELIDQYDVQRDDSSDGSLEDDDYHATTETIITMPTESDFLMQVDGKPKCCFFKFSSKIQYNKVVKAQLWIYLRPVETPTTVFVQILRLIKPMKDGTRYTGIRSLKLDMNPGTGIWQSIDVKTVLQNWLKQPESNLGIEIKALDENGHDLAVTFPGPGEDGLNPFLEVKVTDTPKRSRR
T1 sequence 2: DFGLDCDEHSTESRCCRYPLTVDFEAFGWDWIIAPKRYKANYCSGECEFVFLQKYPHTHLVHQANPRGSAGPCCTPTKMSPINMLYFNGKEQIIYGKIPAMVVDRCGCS
From the text: Fragments of the N-terminal propeptide coding region of human latent myostatin were cloned into a pGEX4.1 vector so as to produce GST tagged propeptide fragments of 100 amino acid each, with 80 amino acid overlap (FIG. 22A). Protein expression was induced in transformed BL21 competent cells with Overnight Express Autoinduction System (Merck Millipore) and protein was extracted using the BUGBUSTER® protein extraction reagent (Novagen).

[2] = molecular target: T2, cynomolgus monkey FcγRIIIaS extracellular domain with C-terminal His-tag (cynomolgus monkey, UniProt Q8SPW2 21-206 at identity 1.00)); assay: SPR, antibody captured, FcγR analyte
T2 construct: also called cyno FcgRIIIaS; cynoFcγRIIIaS
T2 chain: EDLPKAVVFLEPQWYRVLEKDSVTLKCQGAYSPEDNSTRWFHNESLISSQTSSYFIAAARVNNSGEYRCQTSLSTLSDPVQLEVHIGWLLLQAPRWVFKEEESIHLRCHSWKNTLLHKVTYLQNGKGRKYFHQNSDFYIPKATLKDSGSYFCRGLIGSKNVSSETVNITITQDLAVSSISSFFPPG

[3] = molecular target: T3, cynomolgus monkey FcγRIIa2 extracellular domain with C-terminal His-tag (cynomolgus monkey); assay: SPR, KD(SG1)/KD(variant)
T3 construct: also called cyno FcgRIIa2; cynoFcγRIIa2
T3 chain: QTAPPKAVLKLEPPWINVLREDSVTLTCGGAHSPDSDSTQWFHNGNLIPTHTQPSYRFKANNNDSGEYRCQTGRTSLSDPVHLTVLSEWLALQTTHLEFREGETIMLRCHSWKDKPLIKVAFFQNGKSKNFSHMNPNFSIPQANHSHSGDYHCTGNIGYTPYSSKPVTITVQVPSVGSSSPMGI
Experimental: (§1) The kinetic analysis of interactions between these antibodies and FcγR was carried out using BIACORE® T200 or BIACORE® 4000 (GE Healthcare). HBS-EP+ (GE Healthcare) was used as the running buffer, and the measurement temperature was set to 25° C. […] After the measurement, the antibody captured on the chip was washed off by allowing reaction with 10 mM glycine-HCl, pH1.5 and 25 mM NaOH so that the chip was regenerated and used repeatedly. The sensorgrams obtained as measurement results were analyzed by the 1:1 Langmuir binding model using the BIACORE® Evaluation Software to calculate the binding rate constant ka (L/mol/s) and dissociation rate constant kd (1/s), and the dissociation constant KD (mol/L) was calculated from these values. […] Regarding such interactions, KD values were calculated using the following 1:1 binding model described in BIACORE® T100 Software Handbook BR1006-48 Edition AE.

[4] = molecular target: T4, human FcγRIIIaV extracellular domain with C-terminal His-tag (human, UniProt P08637 17-208); assay: SPR, KD(SG1)/KD(variant)
T4 construct: also called human FcgRIIIaV
T4 sequence (P08637 17-208 F176V): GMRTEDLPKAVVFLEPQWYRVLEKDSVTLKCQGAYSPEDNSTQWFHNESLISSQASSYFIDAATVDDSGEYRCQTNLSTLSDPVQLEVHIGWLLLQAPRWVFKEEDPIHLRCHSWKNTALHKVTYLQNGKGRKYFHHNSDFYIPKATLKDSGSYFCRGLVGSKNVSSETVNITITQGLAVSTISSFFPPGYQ
Experimental: as §1

[5] = molecular target: T2, cynomolgus monkey FcγRIIIaS …; assay: SPR, KD(SG1)/KD(variant)
Experimental: as §1

[6] = molecular target: T5, cynomolgus monkey FcγRIIa1 extracellular domain with C-terminal His-tag (cynomolgus monkey); assay: SPR, KD(SG1)/KD(variant)
T5 construct: also called cyno FcgRIIa1; cynoFcγRIIa1
T5 chain: T3 chain with T95P, A121T, K127I, S128A, N130K, N135D, Q142R
Experimental: as §1

[7] = molecular target: T6, human FcγRIIIaV extracellular domain, His-tagged (human, UniProt P08637 17-208); assay: SPR Biacore, KD(SG1)/KD(variant)
T6 construct: also called FcgRIIIaV; not shown: C-terminal His-tag
T6 sequence (P08637 17-208 F176V): as above

[8] = molecular target: T7, cynomolgus monkey FcγRIIa1 extracellular domain, His-tagged (cynomolgus monkey); assay: SPR Biacore, antibody captured, FcgR analyte
T7 construct: also called cyno FcγRIIa1; cynoFcgRIIa1; not shown: C-terminal His-tag
T7 chain: T3 chain with T95P, A121T, K127I, S128A, N130K, N135D, Q142R

[9] = molecular target: T8, cynomolgus monkey FcγRIIa3 extracellular domain, His-tagged (cynomolgus monkey); assay: SPR Biacore, antibody captured, FcgR analyte
T8 construct: also called cyno FcγRIIa3; cynoFcgRIIa3; not shown: C-terminal His-tag
T8 chain: T3 chain with K127I, N130K, H133P, Q142R

[10] = molecular target: T9, human FcγRIIb extracellular domain, His-tagged (human, UniProt P31994 43-217); assay: SPR Biacore, antibody captured, FcgR analyte
T9 construct: also called FcgRIIb (human); not shown: C-terminal His-tag
T9 sequence: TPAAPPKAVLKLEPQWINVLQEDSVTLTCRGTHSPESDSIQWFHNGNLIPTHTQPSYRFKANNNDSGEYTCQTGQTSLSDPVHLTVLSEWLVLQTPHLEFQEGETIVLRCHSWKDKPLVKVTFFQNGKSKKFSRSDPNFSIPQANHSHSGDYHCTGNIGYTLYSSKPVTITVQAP

[11] = molecular target: T7, cynomolgus monkey FcγRIIa1 …; assay: SPR Biacore, KD(SG1)/KD(variant)
[12] = molecular target: T8, cynomolgus monkey FcγRIIa3 …; assay: SPR Biacore, KD(SG1)/KD(variant)
[13] = molecular target: T10, cynomolgus monkey FcγRIIb extracellular domain, His-tagged (cynomolgus monkey); assay: SPR Biacore, KD(SG1)/KD(variant)
T10 construct: also called cyno FcγRIIb; cynoFcγRIIb; not shown: C-terminal His-tag
T10 chain: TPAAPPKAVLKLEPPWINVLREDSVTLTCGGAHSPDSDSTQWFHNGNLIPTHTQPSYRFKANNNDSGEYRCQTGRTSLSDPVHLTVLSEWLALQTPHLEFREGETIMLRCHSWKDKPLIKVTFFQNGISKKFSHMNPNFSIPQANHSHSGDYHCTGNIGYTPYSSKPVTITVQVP

[14] = molecular target: T11, cynomolgus monkey FcγRIIa2 extracellular domain, His-tagged (cynomolgus monkey); assay: SPR Biacore, antibody captured, FcgR analyte
T11 construct: also called cyno FcγRIIa2; cynoFcgRIIa2; not shown: C-terminal His-tag
T11 chain: T3 chain

[15] = molecular target: T12, human FcγRIIIaV extracellular domain, C-terminal His-tag (human, UniProt P08637 17-208); assay: SPR (BIACORE), captured by anti-human kappa, FcgR analyte
T12 construct: also called FcgRIIIaV
T12 sequence (P08637 17-208 F176V): as the sequence (P08637 17-208 F176V) above
Experimental: as §1
Furthermore, the substitutions used in Example 29 for improving antibody half-life and reducing binding to rheumatoid factor were introduced into human FcγRIIb-enhanced Fc variants and their affinity against human FcγRs were analyzed (Table 29).

B1: MST1572 (antibody, human IgG1, kappa, V domains shown)
VH: QSVEESGGRLVTPGTPLTLTCTVSGFSLSSYAMSWVRQAPGKGLEWIGIIYGVGSTYYASWAKGRFTISKTSTTVDLKIASPTTEDTATYFCARDDYGWGYTNLWGPGTLVTVSS
VL: QVLTQTPSSVSAAVGGTVTINCQSSQSVYNNNYLAWFQQKPGQPPKLLIYDASKLASGVPSRFKGSGSGTQFTLTISGVQCDDAATYYCQGSYYSSGWYRAFGGGTKVEIKR
notes: Constant regions as for MST1504
- binding result [1]: binds

B2: MST1538 (antibody, human IgG1, kappa, V domains shown)
VH: QSLEESGGGLVKPGGTLTLTCKASGIDFSSYYYMCWVRQAPGKGLEWIACIYAGISGSTYYASWAKGRFTISKTSSTTVTLQMTSLTAADTATYFCARDPYHFDYGSLWGPGTLVTVSS
VL: ALVMTQTPASVSAAVGGTVTINCQASQSVYGGNELSWYQQEPGQPPKLLIYSASKLASGVPSRFKGSGSGTQFTLTISGVQCDDAAAYYCAGYRTYSDDDNAFGGGTKVEIKR
notes: as for B1
- binding result [1]: binds

B5: M103205H795-MY016/M103202L889-SK1 (antibody, human IgG1, kappa, name in EU numbering)
heavy: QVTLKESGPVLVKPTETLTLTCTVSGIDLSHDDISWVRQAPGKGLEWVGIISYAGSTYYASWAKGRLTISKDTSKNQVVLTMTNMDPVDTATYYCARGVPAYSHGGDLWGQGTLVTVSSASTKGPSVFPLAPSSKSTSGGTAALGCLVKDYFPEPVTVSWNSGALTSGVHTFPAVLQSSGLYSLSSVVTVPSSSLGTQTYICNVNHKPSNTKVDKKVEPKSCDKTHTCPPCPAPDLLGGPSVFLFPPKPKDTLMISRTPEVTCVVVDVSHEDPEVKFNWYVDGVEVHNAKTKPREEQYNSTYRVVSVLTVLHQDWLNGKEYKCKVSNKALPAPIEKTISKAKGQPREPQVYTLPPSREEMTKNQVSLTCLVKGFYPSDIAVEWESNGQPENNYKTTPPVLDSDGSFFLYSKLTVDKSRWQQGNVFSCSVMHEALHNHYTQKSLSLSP
light: DIVMTQSPATLSLSPGERATLSCTSSQSVYHANWLSWFQQKPGQPPKLLIYWASTLAYGVPSRFSGSGSGTDFTLTISSLQPEDAATYYCAGGYGGGRYAFGQGTKVEIKRTVAAPSVFIFPPSDEQLKSGTASVVCLLNNFYPREAKVQWKVDNALQSGNSQESVTEQDSKDSTYSLSSTLTLSKADYEKHKVYACEVTHQGLSSPVTKSFNRGEC
notes: Substitution introduced into M103205H795-SG1
- KD fold (SG1 = 1) [7]: 2.19 fold

B6: M103205H795-MY010/M103202L889-SK1 (antibody, human IgG1, kappa, name in EU numbering)
heavy: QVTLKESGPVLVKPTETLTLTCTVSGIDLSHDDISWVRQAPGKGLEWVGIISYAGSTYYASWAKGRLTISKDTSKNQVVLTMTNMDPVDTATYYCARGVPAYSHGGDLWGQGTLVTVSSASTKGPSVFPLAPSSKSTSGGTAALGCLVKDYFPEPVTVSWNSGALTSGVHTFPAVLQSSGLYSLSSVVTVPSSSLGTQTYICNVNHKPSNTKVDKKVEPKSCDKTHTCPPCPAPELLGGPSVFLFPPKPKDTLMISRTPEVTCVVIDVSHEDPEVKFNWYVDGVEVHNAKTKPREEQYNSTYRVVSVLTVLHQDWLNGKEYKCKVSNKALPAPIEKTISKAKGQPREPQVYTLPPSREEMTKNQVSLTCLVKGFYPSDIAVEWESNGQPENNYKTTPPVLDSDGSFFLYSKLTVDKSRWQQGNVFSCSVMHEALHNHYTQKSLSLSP
light: B5 light
notes: Substitution introduced into M103205H795-SG1; EU numbering
- Kd [8]: 3.5 µM
- Kd [9]: 16 µM
- Kd [10]: 5.1 µM
- KD fold (SG1 = 1) [11]: 0.9 fold
- KD fold (SG1 = 1) [12]: 1.1 fold
- KD fold (SG1 = 1) [13]: 0.9 fold

B10: MS103240H795-TT72/M103202L1045-SK1 (antibody)
heavy: QVQLVESGGGLVQPGGSLRLSCAVSGIDLSHDDISWVRQAPGKGLEWVSIISYAGSTYYASWAKGRLTISKDTSKNQVVLTMTNMDPVDTATYYCARGVPAYSHGGDLWGQGTLVTVSSASTKGPSVFPLAPSSKSTSGGTAALGCLVKDYFPEPVTVSWNSGALTSGVHTFPAVLQSSGLYSLSSVVTVPSSSLGTQTYICNVNHKPSNTKVDKKVEPKSCDKTHTCPPCPAPELLGGDSVFLFPPKPKDVLMISRTPEVTCVVIDVSHEDPEVKFNWYVDGVEVHNAKTKPREEQYNSTYRVVSVLPVLHRDWLNGKEYKCKVSNKALPKPIEKTISKAKGQPREPQVYTLPPSREEMTKNQVSLTCLVKGFYPSDIAVEWESNGQPENNYKTTPPVLDSDGSFFLYSKLTVKKSRWQQGNVFSCSVMHEALHAHYTRKELSLSP
light: B5 light with S25T, A32E
notes: copies: 2 + 2
- Kd [15]: 900 µM

B11: MS103240H795-TT90/M103202L1045-SK1 (antibody)
heavy: B10 heavy with L236Y, P345R, K415D
light: B5 light with S25T, A32E
- Kd [15]: 960 µM

Continued, values first:

- Kd [2]: 4 µM
- KD fold (SG1 = 1) [3]: 3.3 fold
- KD fold (SG1 = 1) [4]: 0.04 fold
- KD fold (SG1 = 1) [5]: 0.07 fold
B3: MS1032LO06-MY352 (antibody, human IgG1, kappa)
heavy: QVTLKESGPVLVKPTETLTLTCTVSGIDLSHDDISWVRQAPGKGLEWVGIISYAGSTYYASWAKGRLTISKDTSKNQVVLTMTNMDPVDTATYYCARGVPAYSHGGDLWGQGTLVTVSSASTKGPSVFPLAPSSKSTSGGTAALGCLVKDYFPEPVTVSWNSGALTSGVHTFPAVLQSSGLYSLSSVVTVPSSSLGTQTYICNVNHKPSNTKVDKKVEPKSCDKTHTCPPCPAPELLNGPSVFLFPPKPKDTLMISRTPEVTCVVVDVSDEDPEVKFNWYVDGVEVHNAKTKPREEQYNSTYRVVSVLTVLHRDWLNGKEYKCKVSNKALPKPIEKTISKAKGQPREPQVYTLPPSREEMTKNQVSLTCLVKGFYPSDIAVEWESNGQPENNYKTTPPVLDSDGSFFLYSKLTVRKSRWQQGNVFSCSVMHEALHNHYTQKSLSLSP
light: B5 light
notes: MY201 with Q311R/D413R; also called M103205H795-MY352; copies: 2 + 2

- Kd [2]: 3.3 µM
- KD fold (SG1 = 1) [5]: 0.08 fold
- KD fold (SG1 = 1) [6]: 3.5 fold
B4: MS1032LO06-PK55 (antibody, human IgG1, kappa)
heavy: B3 heavy with P345R, R415D
light: B5 light
notes: MY201 with Q311R/P343R; also called MS103205H795-PK55; M103205H795-MY55

- Kd [9]: 6.9 µM
- Kd [14]: 2.6 µM
B7: M103205H795-MY064/M103202L889-SK1 (antibody, human IgG1, kappa, name in EU numbering)
heavy: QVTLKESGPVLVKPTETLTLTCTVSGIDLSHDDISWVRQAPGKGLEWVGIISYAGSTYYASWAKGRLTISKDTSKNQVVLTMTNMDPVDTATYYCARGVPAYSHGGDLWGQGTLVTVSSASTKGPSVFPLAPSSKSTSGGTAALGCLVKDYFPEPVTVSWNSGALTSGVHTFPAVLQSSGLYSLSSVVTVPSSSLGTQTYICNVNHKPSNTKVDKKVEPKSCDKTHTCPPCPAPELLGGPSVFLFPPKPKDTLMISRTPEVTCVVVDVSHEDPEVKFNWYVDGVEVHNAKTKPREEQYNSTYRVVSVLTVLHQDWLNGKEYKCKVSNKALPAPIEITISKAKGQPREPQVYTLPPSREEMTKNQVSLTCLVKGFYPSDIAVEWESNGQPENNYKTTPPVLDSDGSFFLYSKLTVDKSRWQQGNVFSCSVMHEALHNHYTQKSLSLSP
light: B5 light
notes: as for B6

- Kd [15]: 930 µM
B8: MS103240H795-TT69/M103202L1045-SK1 (antibody)
heavy: B10 heavy with I266V, M430L, Y438T
light: B5 light with S25T, A32E
notes: copies: 2 + 2

- Kd [9]: 6.7 µM
- Kd [14]: 2.6 µM
B9: M103205H795-MY066/M103202L889-SK1 (antibody, human IgG1, kappa, name in EU numbering)
heavy: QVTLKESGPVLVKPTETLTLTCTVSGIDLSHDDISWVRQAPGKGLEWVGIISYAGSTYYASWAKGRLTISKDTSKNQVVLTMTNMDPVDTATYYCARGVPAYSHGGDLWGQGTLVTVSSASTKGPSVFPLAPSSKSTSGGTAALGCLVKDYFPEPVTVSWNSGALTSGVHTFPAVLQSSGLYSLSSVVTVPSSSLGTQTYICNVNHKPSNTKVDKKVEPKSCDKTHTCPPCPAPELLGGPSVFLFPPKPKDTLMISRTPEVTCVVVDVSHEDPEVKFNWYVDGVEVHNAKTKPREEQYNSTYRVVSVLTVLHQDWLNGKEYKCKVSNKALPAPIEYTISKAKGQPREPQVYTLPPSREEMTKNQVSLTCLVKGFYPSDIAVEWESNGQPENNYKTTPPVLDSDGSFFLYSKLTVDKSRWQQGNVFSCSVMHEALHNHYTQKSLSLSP
light: B5 light
notes: as for B6
